Source: patent US7919587 (HYDROGENE LUND, dated 2011)

Target: the molecule itself
Experiment: X-ray crystal structure, homotetramer
Method: Molecular replacement was carried out using the program MOLREP from the CCCP4i-program suite with the coordinates of bovine AQP1 (PDB entry 1J4N) (SEQ ID NO: 38) as the model. Using two copies of the model in the molecular replacement search, a clear solution with a correlation coefficient and R-factor of 34.3% and 53.1% respectively was found. The crystal packing was checked using the program O (30) and there were no overlaps between molecules. Automated model building was carried out using ARP/WARP (31) and the resulting model was docked to the correct sequence using GUISIDE2. The calculated electron density map at this stage was already of very good quality. Water molecules were picked using ARP/WARP. The model was subjected to multiple rounds of refinement in REFMAC5 (29), NCSREF (29) and CNS (32) with manual rebuilding in O between each round. During refinement, NCS restraints between the two molecules in the asymmetric unit (molecule A and B) were used. […] The R-factor and Rfree are 18.1% and 20.8% respectively. The quality of the structure was checked in PROCHECK (33).

B1: SoPIP2;1, plasma membrane aquaporin of spinach (other)
chain: MSKEVSEEAQAHQHGKDYVDPPPAPFFDLGELKLWSFWRAAIAEFIATLLFLYITVATVIGHSKETVVCGSVGLLGIAWAFGGMIFVLVYCTAGISGGHINPAVTFGLFLARKVSLLRALVYMIAQCLGAICGVGLVKAFMKGPYNQFGGGANSVALGYNKGTALGAEIIGTFVLVYTVFSATDPKRSARDSHVPILAPLPIGFAVFMVHLATIPITGTGINPARSFGAAVIFNSNKVWDDQWIFWVGPFIGAAVAAAYHQYVLRAAAIKALGSFRSNPTN
notes: also called PM28A; spinach aquaporin
**Q.** Does B1 bind?
**A.** Result: binds
